B1: unnamed (peptide)
chain: GLRRARYKFPGQQKI
B2: unnamed (peptide)
chain: SLSRRRFSLPSMPNV
B3: unnamed (peptide)
chain: AGKRRLPLVRFKASD
B4: unnamed (peptide)
chain: RKLRTVPGVPLIHLT
B5: unnamed (peptide)
chain: KRKRRLPVSEDTNTK
B6: unnamed (peptide)
chain: NRLRKRLNLPSEISI

The binders below were run against T1, Abp1, P15891 (assay: SPOT array). Settings: median of control spots 935.
T1 sequence (P15891 535-592, looked up): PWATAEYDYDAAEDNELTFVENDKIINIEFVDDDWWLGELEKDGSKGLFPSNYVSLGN

Row | Binder | SPOT intensity
1 | B1 | 47
2 | B2 | 70
3 | B3 | 262
4 | B4 | 5
5 | B5 | 78
6 | B6 | 36

What follows are binders tested against T2, Bbc1, P47068 (assay: SPOT array). Settings: median of control spots 796.
T2 sequence (P47068 1-78, looked up): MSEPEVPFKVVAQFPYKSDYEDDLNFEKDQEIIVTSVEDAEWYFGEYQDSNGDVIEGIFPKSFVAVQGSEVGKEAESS

Row | Binder | SPOT intensity
7 | B1 | 79
8 | B2 | 98
9 | B3 | 507
10 | B4 | 34
11 | B5 | 77
12 | B6 | 74

What follows are binders tested against Bem1-1, P29366 (assay: SPOT array). Settings: median of control spots 4282.
Chain of Bem1-1, P29366 (P29366 55-141): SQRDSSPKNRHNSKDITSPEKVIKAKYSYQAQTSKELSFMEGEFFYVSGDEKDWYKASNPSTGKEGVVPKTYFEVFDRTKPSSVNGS

Row | Binder | SPOT intensity
13 | B1 | 0
14 | B2 | 0
15 | B3 | 2
16 | B4 | 0
17 | B5 | 1
18 | B6 | 0

These binders were tested against Bem1-2, P29366 (assay: SPOT array). Settings: median of control spots 4347.
Chain of Bem1-2, P29366 (P29366 139-227): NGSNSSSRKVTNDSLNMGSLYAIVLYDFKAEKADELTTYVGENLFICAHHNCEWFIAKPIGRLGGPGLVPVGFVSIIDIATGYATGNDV

Row | Binder | SPOT intensity
19 | B1 | 2
20 | B2 | 53
21 | B3 | 3
22 | B4 | 0
23 | B5 | 0
24 | B6 | 3

Each binder was assayed against T3, Boi1, P38041 (assay: SPOT array). Settings: median of control spots 1162.
T3 sequence (P38041 1-86, looked up): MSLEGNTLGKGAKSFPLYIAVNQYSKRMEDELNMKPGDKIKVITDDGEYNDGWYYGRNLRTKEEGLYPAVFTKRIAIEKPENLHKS

Row | Binder | SPOT intensity
25 | B1 | 3
26 | B2 | 1
27 | B3 | 16
28 | B4 | 0
29 | B5 | 6
30 | B6 | 12

These binders were tested against T4, Boi2, P39969 (assay: SPOT array). Settings: median of control spots 1161.
T4 sequence (P39969 32-116, looked up): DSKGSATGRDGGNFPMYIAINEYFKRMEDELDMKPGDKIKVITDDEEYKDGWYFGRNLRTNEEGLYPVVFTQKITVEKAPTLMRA

Row | Binder | SPOT intensity
31 | B1 | 0
32 | B2 | 1
33 | B3 | 1
34 | B4 | 0
35 | B5 | 2
36 | B6 | 3

Each binder was assayed against T5, Bud14, P27637 (assay: SPOT array). Settings: median of control spots 956.
T5 sequence (P27637 247-328, looked up): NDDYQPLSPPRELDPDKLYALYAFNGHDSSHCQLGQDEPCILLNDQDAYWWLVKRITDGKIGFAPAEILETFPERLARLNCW

Row | Binder | SPOT intensity
37 | B1 | 9
38 | B2 | 15
39 | B3 | 28
40 | B4 | 3
41 | B5 | 22
42 | B6 | 7

The binders below were run against T6, Bzz1-1, P38822 (assay: SPOT array). Settings: median of control spots 4446.
T6 sequence (P38822 478-572, looked up): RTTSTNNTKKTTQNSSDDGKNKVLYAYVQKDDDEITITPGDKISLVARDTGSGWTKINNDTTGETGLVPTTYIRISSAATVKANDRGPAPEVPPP

Row | Binder | SPOT intensity
43 | B1 | 2
44 | B2 | 3
45 | B3 | 0
46 | B4 | 1
47 | B5 | 3
48 | B6 | 6

These binders were tested against T7, Bzz1-2, P38822 (assay: SPOT array). Settings: median of control spots 4538.
T7 sequence (P38822 568-633, looked up): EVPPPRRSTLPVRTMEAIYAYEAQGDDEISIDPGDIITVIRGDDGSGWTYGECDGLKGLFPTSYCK

Row | Binder | SPOT intensity
49 | B1 | 1
50 | B2 | 17
51 | B3 | 2
52 | B4 | 0
53 | B5 | 1
54 | B6 | 13

These binders were tested against T8, Cdc25, P04821 (assay: SPOT array). Settings: median of control spots 969.
T8 sequence (P04821 50-136, looked up): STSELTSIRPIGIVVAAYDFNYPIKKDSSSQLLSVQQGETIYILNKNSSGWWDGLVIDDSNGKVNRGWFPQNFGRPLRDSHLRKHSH

Row | Binder | SPOT intensity
55 | B1 | 15
56 | B2 | 35
57 | B3 | 55
58 | B4 | 0
59 | B5 | 16
60 | B6 | 42

What follows are binders tested against T9, Cyk3, Q07533 (assay: SPOT array). Settings: median of control spots 1451.
T9 sequence (Q07533 1-83, looked up): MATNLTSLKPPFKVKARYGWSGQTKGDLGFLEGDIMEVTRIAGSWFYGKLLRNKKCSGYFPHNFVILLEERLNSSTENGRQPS

Row | Binder | SPOT intensity
61 | B1 | 0
62 | B2 | 1
63 | B3 | 9
64 | B4 | 0
65 | B5 | 8
66 | B6 | 8

These binders were tested against T10, Fus1, P11710 (assay: SPOT array). Settings: median of control spots 1200.
T10 sequence (P11710 432-512, looked up): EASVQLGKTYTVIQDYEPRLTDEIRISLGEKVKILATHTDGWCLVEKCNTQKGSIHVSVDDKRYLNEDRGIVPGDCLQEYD

Row | Binder | SPOT intensity
67 | B1 | 14
68 | B2 | 27
69 | B3 | 23
70 | B4 | 2
71 | B5 | 150
72 | B6 | 321

The binders below were run against GST (assay: SPOT array). Settings: median of control spots 978.

Row | Binder | SPOT intensity
73 | B1 | 3
74 | B2 | 0
75 | B3 | 4
76 | B4 | 1
77 | B5 | 6
78 | B6 | 1

These binders were tested against T11, Hof1, Q05080 (assay: SPOT array). Settings: median of control spots 4086.
T11 sequence (Q05080 590-669, looked up): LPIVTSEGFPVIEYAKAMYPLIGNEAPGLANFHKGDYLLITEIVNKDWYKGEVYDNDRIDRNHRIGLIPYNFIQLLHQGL

Row | Binder | SPOT intensity
79 | B1 | 6
80 | B2 | 77
81 | B3 | 7
82 | B4 | 2
83 | B5 | 0
84 | B6 | 45

These binders were tested against T12, Hse1, P38753 (assay: SPOT array). Settings: median of control spots 1727.
T12 sequence (P38753 208-285, looked up): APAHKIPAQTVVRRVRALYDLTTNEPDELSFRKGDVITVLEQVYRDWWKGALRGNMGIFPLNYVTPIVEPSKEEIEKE

Row | Binder | SPOT intensity
85 | B1 | 12
86 | B2 | 97
87 | B3 | 9
88 | B4 | 0
89 | B5 | 4
90 | B6 | 99

Each binder was assayed against T13, Lsb1, P53281 (assay: SPOT array). Settings: median of control spots 388.
T13 sequence (P53281 45-122, looked up): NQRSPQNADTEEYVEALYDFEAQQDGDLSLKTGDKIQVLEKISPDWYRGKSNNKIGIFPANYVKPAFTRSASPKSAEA

Row | Binder | SPOT intensity
91 | B1 | 71
92 | B2 | 1050
93 | B3 | 18
94 | B4 | 0
95 | B5 | 1
96 | B6 | 459

Each binder was assayed against T14, Lsb3, P43603 (assay: SPOT array). Settings: median of control spots 406.
T14 sequence (P43603 385-451, looked up): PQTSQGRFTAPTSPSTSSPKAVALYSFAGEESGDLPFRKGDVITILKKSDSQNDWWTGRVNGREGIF

Row | Binder | SPOT intensity
97 | B1 | 0
98 | B2 | 4
99 | B3 | 16
100 | B4 | 2
101 | B5 | 8
102 | B6 | 3

What follows are binders tested against T15, Lsb4, P32793 (assay: SPOT array). Settings: median of control spots 397.
T15 sequence (P32793 402-468, looked up): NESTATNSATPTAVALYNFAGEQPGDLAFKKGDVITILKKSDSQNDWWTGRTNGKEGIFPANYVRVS

Row | Binder | SPOT intensity
103 | B1 | 2
104 | B2 | 9
105 | B3 | 18
106 | B4 | 5
107 | B5 | 4
108 | B6 | 0

These binders were tested against Myo3, P36006 (assay: SPOT array). Settings: median of control spots 468.

Row | Binder | SPOT intensity
109 | B1 | 4
110 | B2 | 27
111 | B3 | 22
112 | B4 | 8
113 | B5 | 9
114 | B6 | 4

What follows are binders tested against T16, Myo5, Q04439 (assay: SPOT array). Settings: median of control spots 471.
T16 sequence (Q04439 1072-1160, looked up): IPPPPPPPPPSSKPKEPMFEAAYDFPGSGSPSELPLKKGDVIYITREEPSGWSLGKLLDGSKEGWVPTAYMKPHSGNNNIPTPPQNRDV

Row | Binder | SPOT intensity
115 | B1 | 0
116 | B2 | 4
117 | B3 | 2
118 | B4 | 0
119 | B5 | 0
120 | B6 | 2

What follows are binders tested against T17, Nbp2, Q12163 (assay: SPOT array). Settings: median of control spots 357.
T17 sequence (Q12163 103-180, looked up): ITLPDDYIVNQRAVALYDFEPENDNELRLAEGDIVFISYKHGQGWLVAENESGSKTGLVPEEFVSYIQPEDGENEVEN

Row | Binder | SPOT intensity
121 | B1 | 22
122 | B2 | 34
123 | B3 | 125
124 | B4 | 0
125 | B5 | 8
126 | B6 | 32

These binders were tested against T18, Pex13, P80667 (assay: SPOT array). Settings: median of control spots 1341.
T18 sequence (P80667 295-386, looked up): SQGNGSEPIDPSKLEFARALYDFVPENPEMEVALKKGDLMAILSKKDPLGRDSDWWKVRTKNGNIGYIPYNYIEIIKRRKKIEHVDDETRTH

Row | Binder | SPOT intensity
127 | B1 | 2
128 | B2 | 28
129 | B3 | 4
130 | B4 | 4
131 | B5 | 0
132 | B6 | 2

The binders below were run against T19, Pin3, Q06449 (assay: SPOT array). Settings: median of control spots 2171.
T19 sequence (Q06449 53-122, looked up): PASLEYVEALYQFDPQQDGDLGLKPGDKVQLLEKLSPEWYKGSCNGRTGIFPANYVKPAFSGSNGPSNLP

Row | Binder | SPOT intensity
133 | B1 | 4
134 | B2 | 66
135 | B3 | 8
136 | B4 | 3
137 | B5 | 4
138 | B6 | 17

These binders were tested against Rvs167, P39743 (assay: SPOT array). Settings: median of control spots 2707.
Chain of Rvs167, P39743 (P39743 419-482): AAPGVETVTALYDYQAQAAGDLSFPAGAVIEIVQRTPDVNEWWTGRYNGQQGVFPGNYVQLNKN

Row | Binder | SPOT intensity
139 | B1 | 6
140 | B2 | 4
141 | B3 | 6
142 | B4 | 43
143 | B5 | 1
144 | B6 | 0

The binders below were run against Sho1, P40073 (assay: SPOT array). Settings: median of control spots 1148.
Chain of Sho1, P40073 (P40073 287-367): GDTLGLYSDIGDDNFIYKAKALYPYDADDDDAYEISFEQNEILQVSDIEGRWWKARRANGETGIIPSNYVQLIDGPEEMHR

Row | Binder | SPOT intensity
145 | B1 | 69
146 | B2 | 84
147 | B3 | 260
148 | B4 | 6
149 | B5 | 54
150 | B6 | 58

What follows are binders tested against T20, Sla1-2, P32790 (assay: SPOT array). Settings: median of control spots 712.
T20 sequence (P32790 60-140, looked up): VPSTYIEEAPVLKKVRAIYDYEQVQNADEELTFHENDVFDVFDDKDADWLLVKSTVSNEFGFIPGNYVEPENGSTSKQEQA

Row | Binder | SPOT intensity
151 | B1 | 1
152 | B2 | 2
153 | B3 | 3
154 | B4 | 1
155 | B5 | 0
156 | B6 | 1

These binders were tested against T21, Sla1-3, P32790 (assay: SPOT array). Settings: median of control spots 5475.
T21 sequence (P32790 344-424, looked up): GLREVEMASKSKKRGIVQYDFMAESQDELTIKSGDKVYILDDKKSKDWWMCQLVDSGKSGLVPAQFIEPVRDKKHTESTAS

Row | Binder | SPOT intensity
157 | B1 | 50
158 | B2 | 388
159 | B3 | 27
160 | B4 | 5
161 | B5 | 21
162 | B6 | 141

— article PMC2756588
